Residue numbers refer to the chain shown, from its start.
B1: 136: anti-c-MET antibody from yeast display screening; VH SEQ ID NO: 9, VL SEQ ID NO: 11 (antibody, V domains shown)
VH: EVQLQESGPGLVKPSETLSLTCTVSGGSVTSVNYYWKWIRQPPGKGLEWIGYISYSGNTNYNPSLKSRVTISVDTSKNQFSLKLSSVTAADTAVYYCVRAPYYYMDVWSKGTTVTVSS
VL: DIVMTQSPSSVSASVGDRVTITCRASQGISSWLAWYQQKPGKAPKLLIYAVSSLQSGVPSRFSGSGSGTDFTLTISSLQPEDFATYFCQQANSFPLTFGGGTKVEIK
B2: 187: anti-c-MET antibody from yeast display screening; VH SEQ ID NO: 13, VL SEQ ID NO: 15 (antibody, V domains shown)
VH: ELQLQESGPGLVKPSETLSLTCTVSGGSISSSSYYWGWIRQSPGKGLEWIGSRYYSGNTYYNPSLKSRVTMSVDTSKNQFSLKLRSVTAADTAVYYCARQVYDYWRDWGQGALVTVSS
VL: B1 VL with K45N, V51A, S53N, Q55P, D70V, F87Y, A91S
B3: Amivantamab analog Afu: control bispecific antibody obtained from the afucosylation cell line with gene knockout (antibody, chains of the INN, looked up, V domains shown)
VH: QVQLVESGGGVVQPGRSLRLSCAASGFTFSTYGMHWVRQAPGKGLEWVAVIWDDGSYKYYGDSVKGRFTISRDNSKNTLYLQMNSLRAEDTAVYYCARDGITMVRGVMKDYFDYWGQGTLVTVSS
VL: AIQLTQSPSSLSASVGDRVTITCRASQDISSALVWYQQKPGKAPKLLIYDASSLESGVPSRFSGSESGTDFTLTISSLQPEDFATYYCQQFNSYPLTFGGGTKVEIK
VH2: QVQLVQSGAEVKKPGASVKVSCETSGYTFTSYGISWVRQAPGHGLEWMGWISAYNGYTNYAQKLQGRVTMTTDTSTSTAYMELRSLRSDDTAVYYCARDLRGTNYFDYWGQGTLVTVSS
VL2: DIQMTQSPSSVSASVGDRVTITCRASQGISNWLAWFQHKPGKAPKLLIYAASSLLSGVPSRFSGSGSGTDFTLTISSLQPEDFATYYCQQANSFPITFGQGTRLEIK
modifications: afucosylated
notes: control bispecific antibody obtained from the afucosylation cell line with gene knockout

What was measured:
[1] = test system: HGF-c-MET signaling pathway; test: Blocking of HGF-c-MET signaling pathway in Gefitinib-treated HCC827 cells (single antibody concentration); assay type: cell-based, human; settings: 3 days, Cell titer glo, FIG. 2
Method: HCC827 cells were human non-small cell lung cancer cells (purchased from the Cell Bank of the Chinese Academy of Sciences), which highly express epidermal growth factor receptor EGFR (exon 19 deletion) and c-Met receptor. The treatment with small molecule tyrosine kinase inhibitor (TKI) Gefitinib (gefitinib, an epidermal growth factor receptor tyrosine kinase inhibitor) would induce apoptosis in HCC827 cells. If HGF was added at the same time under such conditions, the c-Met pathway would be activated to induce HCC827 to produce resistance to Gefitinib, thereby inhibiting apoptosis.
The cell density of the HCC827 cells after the expanded culture was adjusted to 2×10^4 cells/ml, added to a 96-well cell culture plate at 100 μl/well, and cultured overnight for later use. The antibody to be tested was diluted to 1000 nM with 1640 medium, HGF was diluted to 800 ng/mL, and Gefitinib was diluted to 8 μM. According to the experimental requirements, the diluted antibody at 50 μl/well, HGF at 25 μl/well, and Gefitinib at 25 μl/well were added to the 96-well plate with HCC827 cells, and supplemented with 1640 medium to reach a total volume of 200 μl/well. After culturing for 3 days at 37° C. and 5% carbon dioxide, 100 μl of the medium was removed, and then Cell titer glo (purchased from Promega) was added at 100 μl/well, and the chemiluminescent signal was collected with an microplate reader.

[2] = target: human c-MET protein (Homo sapiens, UniProt P08581); test: ForteBio affinity assay, human c-Met; assay type: binding
Method: (§1) After the antibodies were prepared, the ForteBio affinity assay was performed according to the reported method (Estep, P et al., Determination of antibody-antigen affinity and epitope binding based on high-throughput methods. MAbs, 2013.5(2): p. 270-8).

[3] = test system: monkey c-MET protein; test: ForteBio affinity assay, monkey c-Met; assay type: binding
Method: as §1

[4] = test system: H292 human lung cancer tumor cells; test: Experimental Model 1: H292 tumor-bearing model; assay type: in vivo, CB-17 SCID mice; settings: H292, Day 7: 10 mg/kg; Day 21: 2 mg/kg; last measured 29 days after inoculation
Method: In this experiment, CB-17 SCID mice were subcutaneously inoculated with H292 human lung cancer tumor cells to establish a tumor-bearing model and determine the anti-tumor effect of the anti-EGFRxc-Met bispecific antibody. Sufficient H292 cells were cultured and expanded in vitro, and the cells were collected after trypsin digestion. After washing with PBS for 3 times, the cells were counted and inoculated subcutaneously at the right abdomen of female 8-week-old CB-17 SCID mice (purchased from Beijing Weitong Lihua) at an amount of 3×10^6 cells/mouse. The subcutaneous tumor formation of tumor cells in the mice was observed daily, and the maximum width axis W and the maximum length axis L of the subcutaneous tumor on the right abdomen of each animal were measured with a vernier caliper, and the weight of each mouse was weighed with an electronic balance. The subcutaneous tumor volume on the right abdomen of each mouse was calculated according to the following formula: tumor volume T=1/2×W×W×L. The mice with too large and too small tumor volumes were eliminated, and the remained mice were divided into 4 groups according to the average tumor volume, with 6 mice in each group. […]
The tumor volume and weight of mice were measured 2 to 3 times a week. The weight and tumor volume of mice were measured for the last time 29 days after the tumor cell inoculation, and then the mice were euthanized.

[5] = test system: A375/H1975/HCC827 cells; test: ADCC induction, CD16a-NFAT-Luc Jurkat reporter gene cells; assay type: cell-based, human; settings: A375, H1975, HCC827 target cells, CD16a-NFAT-Luc Jurkat effector cells, 6 h, FIG. 9
Description: A375 cells were human malignant melanoma cells and purchased from Addexbio, which were capable of expressing EGFR and c-Met receptors. H1975 cells were human lung adenocarcinoma cells and purchased from Addexbio, which were capable of highly expressing EGFR and c-Met receptors. HCC827 cells were human non-small cell lung cancer cells and purchased from the Cell Bank of the Chinese Academy of Sciences, which were capable of highly expressing EGFR and c-Met receptors. […]

human c-MET protein, sequence (P08581 25-1390): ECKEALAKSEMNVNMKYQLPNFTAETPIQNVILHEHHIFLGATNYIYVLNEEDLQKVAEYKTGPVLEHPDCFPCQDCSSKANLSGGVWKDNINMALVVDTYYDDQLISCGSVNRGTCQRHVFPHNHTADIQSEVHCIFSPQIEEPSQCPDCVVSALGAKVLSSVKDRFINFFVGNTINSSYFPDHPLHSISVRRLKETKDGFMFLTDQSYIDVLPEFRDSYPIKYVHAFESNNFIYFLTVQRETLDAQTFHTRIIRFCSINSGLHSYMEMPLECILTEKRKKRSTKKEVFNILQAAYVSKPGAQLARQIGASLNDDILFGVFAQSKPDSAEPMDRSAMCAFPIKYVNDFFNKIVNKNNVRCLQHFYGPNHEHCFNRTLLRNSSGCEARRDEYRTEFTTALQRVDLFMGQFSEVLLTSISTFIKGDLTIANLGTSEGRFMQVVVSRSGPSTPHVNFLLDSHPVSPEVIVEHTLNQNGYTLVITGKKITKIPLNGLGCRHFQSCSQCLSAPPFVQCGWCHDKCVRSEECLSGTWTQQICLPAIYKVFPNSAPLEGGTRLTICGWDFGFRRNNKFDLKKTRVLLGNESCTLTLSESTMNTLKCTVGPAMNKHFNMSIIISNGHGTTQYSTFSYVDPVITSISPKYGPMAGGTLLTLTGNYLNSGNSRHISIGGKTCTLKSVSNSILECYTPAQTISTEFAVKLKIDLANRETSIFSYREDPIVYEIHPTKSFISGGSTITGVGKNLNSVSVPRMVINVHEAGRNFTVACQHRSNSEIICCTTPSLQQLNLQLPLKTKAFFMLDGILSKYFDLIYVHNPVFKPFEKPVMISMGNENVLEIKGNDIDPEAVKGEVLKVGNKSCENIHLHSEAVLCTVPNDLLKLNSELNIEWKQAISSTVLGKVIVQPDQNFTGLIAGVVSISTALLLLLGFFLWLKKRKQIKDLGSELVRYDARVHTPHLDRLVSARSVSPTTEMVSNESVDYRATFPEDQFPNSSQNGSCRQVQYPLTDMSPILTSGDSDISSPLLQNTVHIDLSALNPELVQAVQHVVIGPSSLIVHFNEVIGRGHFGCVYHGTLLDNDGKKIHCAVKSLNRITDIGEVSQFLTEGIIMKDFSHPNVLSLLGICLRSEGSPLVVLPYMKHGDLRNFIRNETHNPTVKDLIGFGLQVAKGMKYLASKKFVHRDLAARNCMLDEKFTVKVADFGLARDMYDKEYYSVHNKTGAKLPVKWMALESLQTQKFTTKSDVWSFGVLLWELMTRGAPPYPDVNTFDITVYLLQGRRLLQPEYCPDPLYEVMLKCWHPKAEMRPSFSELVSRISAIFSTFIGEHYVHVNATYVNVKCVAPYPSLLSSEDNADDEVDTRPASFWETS

Row | Molecule | restoring the proliferation inhibitory effect of Gefitinib on HCC827 cells by blocking HGF-c-MET signaling [1] | Koff [2] [s⁻¹] | Kon [2] [M⁻¹ s⁻¹] | Koff [3] [s⁻¹] | Kon [3] [M⁻¹ s⁻¹] | tumor (volume) inhibition rate (TGI) [4] [%] | ADCC effect [5]
1 | B1 | could restore the proliferation inhibitory effect of Gefitinib on HCC827 cells | 6.71e-06 | 229000 | 0.000426 | 369000 | – | –
2 | B2 | could restore the proliferation inhibitory effect of Gefitinib on HCC827 cells | 0.000369 | 220000 | 0.000947 | 324000 | – | –
3 | B3 | – | – | – | – | – | 74.5 | stronger ADCC effect than the wild-type antibody containing fucose
